{"source": "the RNAGym collection of RNA variant scans (doi:10.7554/elife.80360)", "parents": {"B1": {"name": "CPEB3 Ribozyme (parent)", "chain": "GGGGGCCACAGCAGAAGCGUUCACGUCGCGGCCCCUGUCAGAUUCUGGUGAAUCUGCGAAUUCUGCUGU"}}, "data": [{"variants_of": "B1", "experiment": "self-cleavage, relative activity (ratio to wild type); higher = more cleavage; co-transcriptional", "values": [{"variant": "U43G G68U", "self-cleavage": 0.901}, {"variant": "U43G G68A", "self-cleavage": 0.948}, {"variant": "U43A G56A", "self-cleavage": 0.641}, {"variant": "U43A G56C", "self-cleavage": 0.336}, {"variant": "U43A G56U", "self-cleavage": 0.427}, {"variant": "A42U A51U", "self-cleavage": 0.914}, {"variant": "A42U A51C", "self-cleavage": 0.839}, {"variant": "U44A A51U", "self-cleavage": 0.998}, {"variant": "A42C U43A", "self-cleavage": 0.778}, {"variant": "A42C U43G", "self-cleavage": 0.703}, {"variant": "A42C U64A", "self-cleavage": 0.625}, {"variant": "A42C U64G", "self-cleavage": 0.769}, {"variant": "U43A G50A", "self-cleavage": 0.962}, {"variant": "U43A G50C", "self-cleavage": 0.91}, {"variant": "U43A G50U", "self-cleavage": 0.959}, {"variant": "U43G C45G", "self-cleavage": 0.907}, {"variant": "U43G C45A", "self-cleavage": 0.886}, {"variant": "U43G U44C", "self-cleavage": 0.936}, {"variant": "U43G U44A", "self-cleavage": 0.971}, {"variant": "U43G C54G", "self-cleavage": 0.318}, {"variant": "U43G C54A", "self-cleavage": 0.432}, {"variant": "U43G A51U", "self-cleavage": 0.934}, {"variant": "U43G A51C", "self-cleavage": 0.941}, {"variant": "U43G A51G", "self-cleavage": 0.901}, {"variant": "U44A U53C", "self-cleavage": 0.684}, {"variant": "U44A U53G", "self-cleavage": 0.84}, {"variant": "U44A U53A", "self-cleavage": 0.922}, {"variant": "A42C U69A", "self-cleavage": 1.02}, {"variant": "A42C U69G", "self-cleavage": 1.01}, {"variant": "A42C U69C", "self-cleavage": 1.05}, {"variant": "U44A C63A", "self-cleavage": 0.731}, {"variant": "A42U G58A", "self-cleavage": 0.923}, {"variant": "A42U G58C", "self-cleavage": 0.97}, {"variant": "A42C U49G", "self-cleavage": 0.964}, {"variant": "A42C U49A", "self-cleavage": 0.974}, {"variant": "U44A C57G", "self-cleavage": 0.365}, {"variant": "U44A C57U", "self-cleavage": 0.397}, {"variant": "U44A C57A", "self-cleavage": 0.383}, {"variant": "U44A U67C", "self-cleavage": 0.973}, {"variant": "U44A U67G", "self-cleavage": 0.984}, {"variant": "U44A U67A", "self-cleavage": 0.936}, {"variant": "A42G C66U", "self-cleavage": 0.93}, {"variant": "A42G C66G", "self-cleavage": 0.622}, {"variant": "A42G C66A", "self-cleavage": 0.558}, {"variant": "A42U U64A", "self-cleavage": 0.726}, {"variant": "A42U U64G", "self-cleavage": 0.722}, {"variant": "U43A C66U", "self-cleavage": 0.831}, {"variant": "U43A C66A", "self-cleavage": 0.416}, {"variant": "U44A A60C", "self-cleavage": 0.423}, {"variant": "U44A A60U", "self-cleavage": 0.353}, {"variant": "U44A A52U", "self-cleavage": 0.969}, {"variant": "A42U U62G", "self-cleavage": 0.738}, {"variant": "A42U U62A", "self-cleavage": 0.809}, {"variant": "A42U U62C", "self-cleavage": 0.721}, {"variant": "A42G U44A", "self-cleavage": 0.822}, {"variant": "A42G U44C", "self-cleavage": 0.562}, {"variant": "U43G U61C", "self-cleavage": 0.332}, {"variant": "U43A C63G", "self-cleavage": 0.45}, {"variant": "U43A C63A", "self-cleavage": 0.504}, {"variant": "A42G U61G", "self-cleavage": 0.359}, {"variant": "U44A U55C", "self-cleavage": 0.496}, {"variant": "U44A U55A", "self-cleavage": 0.566}, {"variant": "A42G G58C", "self-cleavage": 0.894}, {"variant": "A42G G58A", "self-cleavage": 0.951}, {"variant": "A42G U49G", "self-cleavage": 0.96}, {"variant": "A42G U49C", "self-cleavage": 0.901}, {"variant": "A42G U49A", "self-cleavage": 0.938}, {"variant": "A42C U55G", "self-cleavage": 0.285}, {"variant": "A42C U55C", "self-cleavage": 0.328}, {"variant": "A42C U55A", "self-cleavage": 0.595}, {"variant": "U43G U46C", "self-cleavage": 0.677}, {"variant": "U43G U46G", "self-cleavage": 0.915}, {"variant": "A42G G50U", "self-cleavage": 0.887}, {"variant": "U43G U55A", "self-cleavage": 0.486}, {"variant": "U43G U55G", "self-cleavage": 0.264}, {"variant": "U43C C63G", "self-cleavage": 0.648}, {"variant": "U43C C63A", "self-cleavage": 0.619}, {"variant": "U43A U44C", "self-cleavage": 0.987}, {"variant": "U43A U44A", "self-cleavage": 0.888}, {"variant": "U43A U44G", "self-cleavage": 0.957}, {"variant": "A42U U69C", "self-cleavage": 1.04}, {"variant": "A42U U69A", "self-cleavage": 1}, {"variant": "U43C A52U", "self-cleavage": 1}, {"variant": "U43C A52C", "self-cleavage": 0.968}, {"variant": "A42G G56A", "self-cleavage": 0.761}, {"variant": "A42G G56C", "self-cleavage": 0.475}, {"variant": "U43A U46A", "self-cleavage": 0.958}, {"variant": "U43A U46G", "self-cleavage": 0.943}, {"variant": "U43A U46C", "self-cleavage": 0.952}, {"variant": "A42U A59G", "self-cleavage": 0.965}, {"variant": "U43A U61C", "self-cleavage": 0.334}, {"variant": "A42U G47C", "self-cleavage": 0.993}, {"variant": "A42U G47U", "self-cleavage": 1.02}, {"variant": "U43G G48A", "self-cleavage": 0.964}, {"variant": "U43G G48C", "self-cleavage": 0.933}, {"variant": "A42C G68C", "self-cleavage": 0.963}, {"variant": "A42C G68A", "self-cleavage": 1}, {"variant": "A42C G68U", "self-cleavage": 1.01}, {"variant": "U43A G68U", "self-cleavage": 0.973}, {"variant": "U43A G68C", "self-cleavage": 1.01}, {"variant": "U44A", "self-cleavage": 0.983}, {"variant": "A42U A52U", "self-cleavage": 0.986}, {"variant": "A42U A52G", "self-cleavage": 0.88}, {"variant": "A42U A52C", "self-cleavage": 0.945}, {"variant": "A42G C57U", "self-cleavage": 0.356}, {"variant": "A42U G48A", "self-cleavage": 0.968}, {"variant": "A42U G48C", "self-cleavage": 0.947}, {"variant": "U44A U46A", "self-cleavage": 0.99}, {"variant": "U43G A52C", "self-cleavage": 0.962}, {"variant": "U43G A52G", "self-cleavage": 0.911}, {"variant": "U43G A52U", "self-cleavage": 0.992}, {"variant": "A42C U53A", "self-cleavage": 1.03}, {"variant": "A42G G48U", "self-cleavage": 0.948}, {"variant": "A42G G48C", "self-cleavage": 0.989}, {"variant": "U43A U53G", "self-cleavage": 0.773}, {"variant": "A42U U55G", "self-cleavage": 0.276}, {"variant": "A42U U55A", "self-cleavage": 0.485}, {"variant": "U44A G56A", "self-cleavage": 0.849}, {"variant": "U44A G56C", "self-cleavage": 0.383}, {"variant": "A42G U43G", "self-cleavage": 0.565}, {"variant": "A42G U43A", "self-cleavage": 0.853}, {"variant": "A42G U43C", "self-cleavage": 0.935}, {"variant": "U43A U67A", "self-cleavage": 0.919}, {"variant": "U43A U67C", "self-cleavage": 0.895}, {"variant": "A42G U53A", "self-cleavage": 0.895}, {"variant": "A42G U53G", "self-cleavage": 0.801}, {"variant": "A42G", "self-cleavage": 0.951}, {"variant": "A42U", "self-cleavage": 0.965}, {"variant": "A42U U67A", "self-cleavage": 0.95}, {"variant": "A42U U67G", "self-cleavage": 0.951}, {"variant": "U44A U49A", "self-cleavage": 1.02}, {"variant": "U44A U49G", "self-cleavage": 0.993}, {"variant": "U43G A59U", "self-cleavage": 0.566}, {"variant": "U43G A59G", "self-cleavage": 0.836}, {"variant": "U43G A59C", "self-cleavage": 0.513}, {"variant": "A42G C45A", "self-cleavage": 1.01}, {"variant": "A42G C45U", "self-cleavage": 0.927}, {"variant": "A42G G65A", "self-cleavage": 0.639}, {"variant": "A42G G65U", "self-cleavage": 0.605}, {"variant": "A42G G65C", "self-cleavage": 0.508}, {"variant": "U43C U55A", "self-cleavage": 0.632}, {"variant": "U43C U55C", "self-cleavage": 0.455}, {"variant": "A42G U62C", "self-cleavage": 0.647}, {"variant": "A42U C57U", "self-cleavage": 0.436}, {"variant": "A42U G56A", "self-cleavage": 0.799}, {"variant": "A42U G56U", "self-cleavage": 0.517}, {"variant": "U43G G65C", "self-cleavage": 0.432}, {"variant": "U43G G65U", "self-cleavage": 0.352}, {"variant": "U43C U44C", "self-cleavage": 0.937}, {"variant": "U43C U44A", "self-cleavage": 1.02}, {"variant": "A42U A60G", "self-cleavage": 0.74}, {"variant": "A42U A60C", "self-cleavage": 0.219}, {"variant": "A42U A60U", "self-cleavage": 0.436}, {"variant": "U43A A51U", "self-cleavage": 0.939}, {"variant": "U43A A51G", "self-cleavage": 0.928}, {"variant": "U43C C57G", "self-cleavage": 0.308}, {"variant": "U43C C57A", "self-cleavage": 0.298}, {"variant": "A42G C63G", "self-cleavage": 0.583}, {"variant": "A42G C63U", "self-cleavage": 0.889}, {"variant": "A42G C63A", "self-cleavage": 0.617}, {"variant": "U43C U49C", "self-cleavage": 0.984}, {"variant": "A42C U62A", "self-cleavage": 0.673}, {"variant": "A42C U62G", "self-cleavage": 0.757}, {"variant": "A42C U62C", "self-cleavage": 0.659}, {"variant": "U43C C45U", "self-cleavage": 1.01}, {"variant": "A42C U61C", "self-cleavage": 0.477}, {"variant": "A42C U61A", "self-cleavage": 0.742}]}]}
